Patent US20230250154A1

Biological target: Protease Mixtures
Test: cell-based or functional assay

Protease Inhibition (% of WT); Protease Mixtures, IGD Substrate: 110 % of WT
B1: Variant A2M, bait region SEQ ID NO 143, P01023 24-1474 (protein)
chain: SVSGKPQYMVLVPSLLHTETTEKGCVLLSYLNETVTVSASLESVRGNRSLFTDLEAENDVLHCVAFAVPKSSSNEEVMFLTVQVKGPTQEFKKRTTVMVKNEDSLVFVQTDKSIYKPGQTVKFRVVSMDENFHPLNELIPLVYIQDPKGNRIAQWQSFQLEGGLKQFSFPLSSEPFQGSYKVVVQKKSGGRTEHPFTVEEFVLPKFEVQVTVPKIITILEEEMNVSVCGLYTYGKPVPGHVTVSICRKYSDASDCHGEDSQAFCEKFSGQLNSHGCFYQQVKTKVFQLKRKEYEMKLHTEAQIQEEGTVVELTGRQSSEITRTITKLSFVKVDSHFRQGIPFFGQVRLVDGKGVPIPNKVIFIRGNEANYYSNATTDEHGLVQFSINTTNVMGTSLTVRVNYKDRSPCYGYQWVSEEHEEAHHTAYLVFSPSKSFVHLEPMSHELPCGHTQTVQAHYILNGGTLLGLKKLSFYYLIMAKGGIVRTGTHGLLVKQEDMKGHFSISIPVKSDIAPVARLLIYAVLPTGDVIGDSAKYDVENCLANKVDLSFSPSQSLPASHAHLRVTAAPQSVCALRAVDQSVLLMKPDAELSASSVYNLLPEKDLTGFPGPLNDQDDEDCINRHNVYINGITYTPVSSTNEKDMYSFLEDMGLKAFTNSKIRKPKMCPQLEQYEMHGPIPENFFGVSEDLVVQIEGEGEGEGEAIPMSIPTEPHTKLRKYFPETWIWDLVVVNSAGVAEVGVTVPDTITEWKAGAFCLSEDAGLGISSTASLRAFQPFFVELTMPYSVIRGEAFTLKATVLNYLPKCIRVSVQLEASPAFLAVPVEKEQAPHCICANGRQTVSWAVTPKSLGNVNFTVSAEALESQELCGTEVPSVPEHGRKDTVIKPLLVEPEGLEKETTFNSLLCPSGGEVSEELSLKLPPNVVEESARASVSVLGDILGSAMQNTQNLLQMPYGCGEQNMVLFAPNIYVLDYLNETQQLTPEIKSKAIGYLNTGYQRQLNYKHYDGSYSTFGERYGRNQGNTWLTAFVLKTFAQARAYIFIDEAHITQALIWLSQRQKDNGCFRSSGSLLNNAIKGGVEDEVTLSAYITIALLEIPLTVTHPVVRNALFCLESAWKTAQEGDHGSHVYTKALLAYAFALAGNQDKRKEVLKSLNEEAVKKDNSVHWERPQKPKAPVGHFYEPQAPSAEVEMTSYVLLAYLTAQPAPTSEDLTSATNIVKWITKQQNAQGGFSSTQDTVVALHALSKYGAATFTRTGKAAQVTIQSSGTFSSKFQVDNNNRLLLQQVSLPELPGEYSMKVTGEGCVYLQTSLKYNILPEKEEFPFALGVQTLPQTCDEPKAHTSFQISLSVSYTGSRSASNMAIVDVKMVSGFIPLKPTVKMLERSNHVSRTEVSSNHVLIYLDKVSNQTLSLFFTVLQDVPVRDLKPAIVKVYDYYETDEFAIAEYNAPCSKDLGNADYKDDDDKGASHHHHHH
